The values below come from patent US20180030118A1 (EMERGENT BIOSOLUTIONS CANADA, published 2018).

Test [1] concerns the target T1, MARV Angola GPe (Marburg virus, strain Angola, UniProt Q1PD50 19-648).
T1 construct: extracellular domain; also called Marburg GP (Angola) ectodomain
T1 sequence: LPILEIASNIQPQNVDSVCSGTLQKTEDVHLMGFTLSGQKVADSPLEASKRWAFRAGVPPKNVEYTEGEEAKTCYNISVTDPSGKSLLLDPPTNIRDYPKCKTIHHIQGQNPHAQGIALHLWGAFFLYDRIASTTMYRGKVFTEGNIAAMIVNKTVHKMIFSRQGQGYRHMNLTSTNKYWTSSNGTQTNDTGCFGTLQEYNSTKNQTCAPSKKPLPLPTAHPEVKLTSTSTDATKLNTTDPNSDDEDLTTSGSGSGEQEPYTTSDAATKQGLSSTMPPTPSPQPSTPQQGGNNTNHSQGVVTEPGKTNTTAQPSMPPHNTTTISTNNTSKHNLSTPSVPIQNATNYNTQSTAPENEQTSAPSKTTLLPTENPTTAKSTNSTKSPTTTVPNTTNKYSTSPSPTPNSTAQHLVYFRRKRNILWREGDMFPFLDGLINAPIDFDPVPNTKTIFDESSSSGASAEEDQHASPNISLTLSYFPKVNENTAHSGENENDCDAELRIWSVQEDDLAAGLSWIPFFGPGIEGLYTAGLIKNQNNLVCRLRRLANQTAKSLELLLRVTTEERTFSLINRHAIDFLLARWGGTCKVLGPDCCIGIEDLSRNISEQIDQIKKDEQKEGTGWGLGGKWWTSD
The test is described as follows: ELISA on coated GPe (200 ng/well).

Test [2] concerns the target T2, MARV Musoke GPe (Marburg virus, strain Musoke, UniProt P35253 19-648).
T2 construct: extracellular domain; also called Marburg GP (Musoke) ectodomain
T2 sequence: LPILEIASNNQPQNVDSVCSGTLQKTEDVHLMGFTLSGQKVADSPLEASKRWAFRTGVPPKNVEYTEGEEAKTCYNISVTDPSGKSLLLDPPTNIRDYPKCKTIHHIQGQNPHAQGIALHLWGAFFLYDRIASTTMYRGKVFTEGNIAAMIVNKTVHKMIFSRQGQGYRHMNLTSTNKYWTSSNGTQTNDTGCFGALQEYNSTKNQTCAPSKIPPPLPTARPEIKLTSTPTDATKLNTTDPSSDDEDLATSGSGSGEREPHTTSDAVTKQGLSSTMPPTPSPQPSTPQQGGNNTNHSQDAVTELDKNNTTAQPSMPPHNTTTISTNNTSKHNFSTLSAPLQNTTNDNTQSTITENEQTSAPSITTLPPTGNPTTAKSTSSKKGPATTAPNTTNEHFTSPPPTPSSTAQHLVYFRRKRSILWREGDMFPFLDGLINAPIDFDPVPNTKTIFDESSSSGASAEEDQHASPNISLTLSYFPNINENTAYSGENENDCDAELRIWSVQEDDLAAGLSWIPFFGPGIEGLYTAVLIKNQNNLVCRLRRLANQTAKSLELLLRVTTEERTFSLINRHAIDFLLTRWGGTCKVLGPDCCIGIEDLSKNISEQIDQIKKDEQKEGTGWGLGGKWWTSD
The test is described as follows: ELISA on coated GPe (200 ng/well).

The next test concerns the target T3, MARV Ravn GPe (Marburg virus, strain Ravn, UniProt Q1PDC7 19-648).
T3 construct: extracellular domain; also called Marburg GP (Ravn) ectodomain
T3 sequence: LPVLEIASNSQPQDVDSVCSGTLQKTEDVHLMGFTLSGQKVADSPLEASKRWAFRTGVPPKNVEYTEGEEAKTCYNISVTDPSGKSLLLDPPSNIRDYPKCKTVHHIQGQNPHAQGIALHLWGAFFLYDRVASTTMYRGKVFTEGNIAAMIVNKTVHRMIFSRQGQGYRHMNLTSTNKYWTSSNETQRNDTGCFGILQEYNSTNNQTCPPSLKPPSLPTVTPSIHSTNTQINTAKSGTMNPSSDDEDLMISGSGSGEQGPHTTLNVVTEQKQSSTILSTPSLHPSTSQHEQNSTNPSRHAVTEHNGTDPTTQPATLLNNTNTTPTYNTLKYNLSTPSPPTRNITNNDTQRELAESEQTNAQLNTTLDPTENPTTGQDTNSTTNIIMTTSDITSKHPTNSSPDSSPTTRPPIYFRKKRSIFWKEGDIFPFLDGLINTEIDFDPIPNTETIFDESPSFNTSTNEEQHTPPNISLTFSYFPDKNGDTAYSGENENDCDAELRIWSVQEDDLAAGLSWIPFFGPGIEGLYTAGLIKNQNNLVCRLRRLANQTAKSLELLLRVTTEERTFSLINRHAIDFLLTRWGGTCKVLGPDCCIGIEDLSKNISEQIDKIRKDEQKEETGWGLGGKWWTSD
Briefly: ELISA, GP coated 200 ng/well, mAb at 2 ug/mL. For orientation: In an ELISA, binding on a coated surface is turned into a signal by an enzyme label.

The target in test [3] is T1, MARV Angola GPe. Briefly: ELISA, GP coated 200 ng/well, mAb at 2 ug/mL.
The target of test [4] is T2, MARV Musoke GPe. The test is described as follows: ELISA, GP coated 200 ng/well, mAb at 2 ug/mL.

B1: muCAN30G5 (antibody, V domains shown)
VH: EVQLVESGGGLVQPKGSLKLSCAASGFAFNSYAMHWVCQAPGKGLEWVARIRIKSGNYATSYAGSVTDRFTVSRDDSQNLFYLQMNNLKTEDTAMYYCVREWEGAMDYWGQGTSVTVSS
VL: DIVLTQSPLSLPVSLGDQASISCRSSQSLVHSNGNTYLHWYLQKPGQSPNLLIYKVSNRFSGVPDRFSGSGSGTDFTLKISRVEAEDLGVYFCSQSTHVPWTFGGGTKLEIK
notes: also called murine CAN30G5
In the case of B1, the binding result with MARV Angola GPe [1] and in the test with MARV Musoke GPe [2] was “no binding” each time. In addition, the “OD405 @ 30 min” value with MARV Ravn GPe turned out to be 0.16 OD405.

B2: huCAN30G5 (antibody, V domains shown)
VH: EVQLVESGGGLVQPGGSLKLSCAASGFAFNSYAMHWVRQASGKGLEWVARIRIKSGNYATSYAGSVKGRFTVSRDDSKNTFYLQMNSLKTEDTAMYYCVREWEGAMDYWGQGTLVTVSS
VL: DIVLTQSPLSLPVTLGQPASISCRSSQSLVHSNGNTYLHWYQQRPGQSPRLLIYKVSNRFSGVPDRFSGSGSGTDFTLKISRVEAEDVGVYYCSQSTHVPWTFGGGTKVEIK
notes: also called humanized CAN30G5
In the case of B2, the binding result in the test with MARV Angola GPe [1] and with MARV Musoke GPe [2] was “no binding” throughout. Moreover, the “OD405 @ 30 min” value with MARV Ravn GPe is 2.74 OD405.

B3: muCAN54G2 (antibody, V domains shown)
VH: QVQLQQSGTELVRPGTSVKISCKASGYDFTNFWLGWIKQRPGHGLEWIGDIYPGGDNTYYNEKFKGKVTLTADKSSNTAYMQFSSLTSEDSAVYFCFMILYTLDYWGQGTSVTVSS
VL: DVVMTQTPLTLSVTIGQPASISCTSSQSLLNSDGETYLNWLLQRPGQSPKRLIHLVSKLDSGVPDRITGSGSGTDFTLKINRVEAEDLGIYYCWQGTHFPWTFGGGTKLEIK
notes: also called murine CAN54G2
Take B3: the “OD405 @ 30 min” value was 0.15 OD405 in the test with MARV Angola GPe [3], 0.185 OD405 with MARV Musoke GPe [4] and 0.16 OD405 in the test with MARV Ravn GPe.

B4: huCAN54G2 (antibody, V domains shown)
VH: QVQLQQSGTEVKKPGASVKVSCKASGYDFTNFWLGWIRQAPGQGLEWIGDIYPGGDNTYYNEKFKGRVTLTADKSSNTAYMELSSLRSEDTAVYFCFMILYTLDYWGQGTLVTVSS
VL: DVVMTQTPLTLPVTLGQPASISCTSSQSLLNSDGETYLNWLLQRPGQSPKRLIHLVSKLDSGVPDRFSGSGSGTDFTLKISRVEAEDVGVYYCWQGTHFPWTFGGGTKVEIK
notes: also called humanized CAN54G2
As to B4, the “OD405 @ 30 min” value is 0.502 OD405 with MARV Angola GPe [3], 0.908 OD405 with MARV Musoke GPe [4] and 0.89 OD405 with MARV Ravn GPe.

B5: huCAN40G1 (antibody, V domains shown)
VH: EVQLQQSGPEVKKPGASVKVSCRTSGYTFTEYTIHWVKQAPGKGLEWIGGINPNHGGTLYNQKFKGRVTLTVDKSSSTAYMELSRLRSDDTAVYYCARFTYDYWGQGTLVTVSS
VL: DIVLTQSPASLAVSLGERATISCKASQSVDHDGDSYMNWYQQKPGQPPKLLIYATSNLESGIPARFSGSGSGTDFTLTISSLQAEDVATYYCQQSYEVPLTFGAGTKLEIK
notes: also called humanized CAN40G1
For the molecule B5, the “OD405 @ 30 min” value in the test with MARV Angola GPe [3] was determined as 3.83 OD405; in the test with MARV Musoke GPe [4], 2.73 OD405; with MARV Ravn GPe, 2.75 OD405.

B6: muCAN40G1 (antibody, V domains shown)
VH: EVQLQQSGPELVKPGASVKISCRTSGYTFTEYTIHWVKQSRGKSLEWIGGINPNHGGTLYNQKFKVKATLTVDKSSSTAYMELRSLTSEDSAVYYCARFTYDYWGQGTTLTVSS
VL: DIVLTQSPASLAVSLGQRASISCKASQSVDHDGDSYMNWYQQKPGQPPKLLIYATSNLESGIPARFSGSGSGTDFTLNIHPVEEEDAATYYCQQSYEVPLTFGAGTKLELK
notes: also called murine CAN40G1
B6: the “OD405 @ 30 min” value with MARV Angola GPe [3] was 0.857 OD405; with MARV Musoke GPe [4], 0.536 OD405; with MARV Ravn GPe it was 0.504 OD405.
